Literature values as cited in publication PMC4740388.
Several values for one entry are separate records, joined by “and”; a condition that tells them apart may be missing. Equal values may be shown once. Read-outs that look alike come from different tables or passages of the source.

Key:
[1] = biological target: Integrin αvβ3 (Homo sapiens) (UniProt P06756)
[2] = biological target: Nucleolin (Homo sapiens) (UniProt P19338)
[3] = biological target: Integrin α5β1 (Homo sapiens) (UniProt P08648)
[4] = biological target: Integrin αvβ3 (Homo sapiens) (UniProt P06756); remark: listed apart in the source
[5] = biological target: VEGFR2 ectodomain (Homo sapiens) (UniProt P35968)
VEGFR2 ectodomain (Homo sapiens), sequence (P35968 20-764): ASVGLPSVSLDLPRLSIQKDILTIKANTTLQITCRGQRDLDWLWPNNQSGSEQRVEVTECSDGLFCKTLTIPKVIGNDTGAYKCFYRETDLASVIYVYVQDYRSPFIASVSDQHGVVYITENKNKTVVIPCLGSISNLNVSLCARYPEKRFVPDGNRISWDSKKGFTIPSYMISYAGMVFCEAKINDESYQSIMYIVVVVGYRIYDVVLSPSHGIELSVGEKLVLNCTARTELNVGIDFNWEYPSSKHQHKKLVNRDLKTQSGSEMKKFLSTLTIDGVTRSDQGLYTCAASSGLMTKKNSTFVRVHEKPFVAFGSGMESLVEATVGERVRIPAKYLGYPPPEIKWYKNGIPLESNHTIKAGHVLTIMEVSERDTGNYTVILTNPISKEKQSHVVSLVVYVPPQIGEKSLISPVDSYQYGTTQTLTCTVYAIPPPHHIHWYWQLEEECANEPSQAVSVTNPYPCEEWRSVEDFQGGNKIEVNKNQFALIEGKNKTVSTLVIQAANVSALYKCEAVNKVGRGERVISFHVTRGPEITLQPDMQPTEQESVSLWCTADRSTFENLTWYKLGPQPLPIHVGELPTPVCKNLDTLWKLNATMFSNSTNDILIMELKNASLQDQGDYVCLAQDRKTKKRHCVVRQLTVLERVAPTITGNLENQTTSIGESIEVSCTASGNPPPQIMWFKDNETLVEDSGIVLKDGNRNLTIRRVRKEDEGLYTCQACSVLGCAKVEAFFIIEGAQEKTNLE

[6] = biological target: VEGFR1 ectodomain (Homo sapiens) (UniProt P17948)

Integrin αvβ3 (Homo sapiens), sequence (P06756 31-992, chain 1 of 2): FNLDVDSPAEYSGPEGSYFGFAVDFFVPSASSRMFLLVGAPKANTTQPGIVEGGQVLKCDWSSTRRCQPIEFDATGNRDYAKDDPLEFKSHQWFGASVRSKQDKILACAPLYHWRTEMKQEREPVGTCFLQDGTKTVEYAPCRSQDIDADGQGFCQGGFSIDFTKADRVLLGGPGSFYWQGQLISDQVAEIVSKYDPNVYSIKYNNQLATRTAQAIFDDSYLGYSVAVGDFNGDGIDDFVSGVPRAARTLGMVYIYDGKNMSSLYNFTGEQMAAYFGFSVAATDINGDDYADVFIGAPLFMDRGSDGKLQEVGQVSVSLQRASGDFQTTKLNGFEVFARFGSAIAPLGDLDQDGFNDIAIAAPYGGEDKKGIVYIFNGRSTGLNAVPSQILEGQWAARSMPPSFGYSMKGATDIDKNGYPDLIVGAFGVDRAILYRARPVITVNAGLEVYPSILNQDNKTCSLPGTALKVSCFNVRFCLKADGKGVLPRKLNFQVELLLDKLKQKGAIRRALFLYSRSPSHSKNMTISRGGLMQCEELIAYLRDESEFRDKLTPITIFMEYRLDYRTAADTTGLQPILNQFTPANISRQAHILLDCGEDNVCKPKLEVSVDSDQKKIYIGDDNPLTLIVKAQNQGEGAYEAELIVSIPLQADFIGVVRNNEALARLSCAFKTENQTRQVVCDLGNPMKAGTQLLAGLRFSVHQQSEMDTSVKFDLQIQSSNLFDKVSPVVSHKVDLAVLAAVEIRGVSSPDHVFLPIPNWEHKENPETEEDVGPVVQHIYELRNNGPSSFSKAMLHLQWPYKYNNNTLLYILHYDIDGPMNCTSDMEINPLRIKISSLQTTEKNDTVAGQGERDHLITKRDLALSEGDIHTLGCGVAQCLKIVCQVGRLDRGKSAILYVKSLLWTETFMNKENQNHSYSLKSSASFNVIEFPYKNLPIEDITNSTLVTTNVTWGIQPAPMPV
Integrin αvβ3 (Homo sapiens), sequence (P05106 27-718, chain 2 of 2, further chain): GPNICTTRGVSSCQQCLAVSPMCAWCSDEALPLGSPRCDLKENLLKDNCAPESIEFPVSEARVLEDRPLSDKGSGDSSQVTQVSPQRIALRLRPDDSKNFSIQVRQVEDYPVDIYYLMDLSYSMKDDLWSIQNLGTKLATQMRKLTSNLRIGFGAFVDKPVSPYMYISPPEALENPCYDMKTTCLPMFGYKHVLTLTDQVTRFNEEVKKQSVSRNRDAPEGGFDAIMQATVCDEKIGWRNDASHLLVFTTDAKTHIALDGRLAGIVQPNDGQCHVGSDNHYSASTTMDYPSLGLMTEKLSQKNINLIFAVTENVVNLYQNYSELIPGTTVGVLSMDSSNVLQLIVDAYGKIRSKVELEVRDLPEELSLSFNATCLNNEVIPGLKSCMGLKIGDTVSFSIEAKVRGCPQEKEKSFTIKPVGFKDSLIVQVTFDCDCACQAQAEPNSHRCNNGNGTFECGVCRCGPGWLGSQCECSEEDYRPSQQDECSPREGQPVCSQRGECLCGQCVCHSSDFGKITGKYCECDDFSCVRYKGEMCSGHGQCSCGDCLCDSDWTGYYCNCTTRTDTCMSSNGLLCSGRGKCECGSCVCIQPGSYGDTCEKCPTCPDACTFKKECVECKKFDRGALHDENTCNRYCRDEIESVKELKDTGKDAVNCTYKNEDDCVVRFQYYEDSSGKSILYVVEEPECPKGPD
Endostatin endostatin, sequence (P39060 1569-1754): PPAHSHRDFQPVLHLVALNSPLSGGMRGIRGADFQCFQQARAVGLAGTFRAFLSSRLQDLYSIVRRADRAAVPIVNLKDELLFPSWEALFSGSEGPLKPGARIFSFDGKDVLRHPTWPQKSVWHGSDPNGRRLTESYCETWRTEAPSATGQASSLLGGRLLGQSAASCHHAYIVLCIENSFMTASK
Integrin α5β1 (Homo sapiens), sequence (P08648 42-995, chain 1 of 2): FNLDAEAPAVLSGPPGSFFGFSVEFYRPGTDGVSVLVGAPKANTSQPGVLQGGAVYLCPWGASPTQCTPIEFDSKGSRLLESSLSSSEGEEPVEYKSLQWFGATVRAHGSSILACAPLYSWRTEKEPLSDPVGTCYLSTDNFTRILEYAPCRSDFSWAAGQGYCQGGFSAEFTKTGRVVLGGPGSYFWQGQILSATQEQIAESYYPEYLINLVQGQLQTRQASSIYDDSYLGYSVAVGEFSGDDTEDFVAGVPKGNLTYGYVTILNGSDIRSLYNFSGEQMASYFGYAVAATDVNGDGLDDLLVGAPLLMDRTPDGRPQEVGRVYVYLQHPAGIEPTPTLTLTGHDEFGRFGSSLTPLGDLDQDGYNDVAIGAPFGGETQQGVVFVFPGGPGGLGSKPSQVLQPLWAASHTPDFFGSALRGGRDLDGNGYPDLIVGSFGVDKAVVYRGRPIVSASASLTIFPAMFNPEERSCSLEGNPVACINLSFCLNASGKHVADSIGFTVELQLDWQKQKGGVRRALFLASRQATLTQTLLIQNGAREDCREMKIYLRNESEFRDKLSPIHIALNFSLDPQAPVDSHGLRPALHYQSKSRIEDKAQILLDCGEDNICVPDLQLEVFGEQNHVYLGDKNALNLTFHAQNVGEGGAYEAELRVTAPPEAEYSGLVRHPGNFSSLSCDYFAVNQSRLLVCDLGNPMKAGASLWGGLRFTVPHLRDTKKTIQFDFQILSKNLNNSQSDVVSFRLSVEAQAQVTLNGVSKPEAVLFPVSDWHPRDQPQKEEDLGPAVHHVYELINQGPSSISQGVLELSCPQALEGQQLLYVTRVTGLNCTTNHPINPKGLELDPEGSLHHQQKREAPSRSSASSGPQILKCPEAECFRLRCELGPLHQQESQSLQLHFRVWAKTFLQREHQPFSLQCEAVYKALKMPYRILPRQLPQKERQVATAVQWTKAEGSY
Integrin α5β1 (Homo sapiens), sequence (P05556 21-728, chain 2 of 2, further chain): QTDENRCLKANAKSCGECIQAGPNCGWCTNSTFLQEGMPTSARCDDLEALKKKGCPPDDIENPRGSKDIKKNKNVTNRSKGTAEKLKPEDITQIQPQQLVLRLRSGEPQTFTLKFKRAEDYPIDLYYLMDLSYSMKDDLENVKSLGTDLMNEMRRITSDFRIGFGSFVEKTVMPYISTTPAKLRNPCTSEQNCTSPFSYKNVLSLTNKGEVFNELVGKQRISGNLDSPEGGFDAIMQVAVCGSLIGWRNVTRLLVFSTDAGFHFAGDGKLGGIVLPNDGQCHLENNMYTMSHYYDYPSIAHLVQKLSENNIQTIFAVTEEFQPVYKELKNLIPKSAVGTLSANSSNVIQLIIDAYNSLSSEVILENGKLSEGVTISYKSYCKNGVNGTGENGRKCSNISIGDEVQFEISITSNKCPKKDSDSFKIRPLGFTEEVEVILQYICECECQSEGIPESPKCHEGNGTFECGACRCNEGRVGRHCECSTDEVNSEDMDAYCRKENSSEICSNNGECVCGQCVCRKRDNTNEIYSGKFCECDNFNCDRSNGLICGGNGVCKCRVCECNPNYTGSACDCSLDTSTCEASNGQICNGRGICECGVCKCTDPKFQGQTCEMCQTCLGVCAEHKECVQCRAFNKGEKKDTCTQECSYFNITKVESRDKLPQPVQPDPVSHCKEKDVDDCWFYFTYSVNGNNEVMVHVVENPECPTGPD
Endorepellin endorepellin, sequence (P98160 3684-4391): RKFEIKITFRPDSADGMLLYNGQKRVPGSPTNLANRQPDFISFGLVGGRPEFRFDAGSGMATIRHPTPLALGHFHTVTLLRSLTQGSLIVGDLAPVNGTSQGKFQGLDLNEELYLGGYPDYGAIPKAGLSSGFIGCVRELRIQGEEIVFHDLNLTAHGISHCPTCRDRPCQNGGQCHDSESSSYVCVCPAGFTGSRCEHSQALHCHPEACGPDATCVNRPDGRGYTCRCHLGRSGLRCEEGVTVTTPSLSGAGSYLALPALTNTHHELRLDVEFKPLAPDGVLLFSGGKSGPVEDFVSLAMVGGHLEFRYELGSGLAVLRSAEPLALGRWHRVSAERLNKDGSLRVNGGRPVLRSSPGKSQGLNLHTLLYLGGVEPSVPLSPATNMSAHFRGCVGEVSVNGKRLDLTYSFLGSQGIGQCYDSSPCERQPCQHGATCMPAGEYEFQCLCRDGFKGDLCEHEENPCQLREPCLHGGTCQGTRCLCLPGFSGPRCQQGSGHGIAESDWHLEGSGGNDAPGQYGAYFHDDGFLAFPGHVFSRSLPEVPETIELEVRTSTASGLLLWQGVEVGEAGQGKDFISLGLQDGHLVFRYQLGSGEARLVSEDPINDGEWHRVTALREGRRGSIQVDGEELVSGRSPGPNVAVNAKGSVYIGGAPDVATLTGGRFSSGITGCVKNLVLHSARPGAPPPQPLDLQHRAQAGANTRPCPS

For “Tetrastatin tetrastatin (from UniProt P53420)”, the Kd [1] is given as 0.148 µM.

In the case of “Endostatin endostatin (from UniProt P39060)”, the Kd [2] is listed as 0.013 µM, the Kd [3] is listed as 0.975 µM and 0.451 µM and the Kd [4] is listed as 0.501 µM and 1.2 µM.

For “Endorepellin endorepellin (from UniProt P98160)”, the Kd [5] is listed as 0.0009 µM and the Kd [6] is listed as 0.001 µM.
